Results as given in patent US6485937.

Tests used:
[1] = biological target: carboxy terminal domain (CTD) of RNA polymerase II fused to GST (GST-CTD) [GST: P08515]
[2] = biological target: HIV TAT trans-activating protein (wildtype TAT, His-tagged fusion)

B1: FLAG-epitope tagged HIV tat interacting protein of 30 kDa (f-TIP30) (protein)
chain: DYKDDDDKMAETEALSKLREDFRMQNKSVFILGASGETGRVLLKEILEQGLFSKVTLIGRRKLTFDEEAYKNVNQEVVDFEKLDDYASAFQGHDVGFCCLGTTRGKAGAEGFVRVDRDYVLKSAELAKAGGCKHFNLLSSKGADKSSNFLYLQVKGEVEAKVEELKFDRYSVFRPGVLLCDRQESRPGEWLVRKFFGSLPDSWASGHSVPVVTVVRAMLNNVVRPRDKQMELLENKAIHDLGKAHGSLKP
in vitro kinase assay (phosphorylation of GST-CTD, [g-32P]ATP, autoradiography) [1]: it could phosphorylate the carboxy terminal domain (CTD) of RNA polymerase II fused to GST (GST-CTD) in an in vitro kinase assay | stimulation of f-TIP30 kinase activity on GST-CTD substrate (in vitro kinase assay) [2]: stimulate the kinase activity of recombinant f-TIP30 on GST-CTD substrate in a dose dependant manner
